The source of these data is paper PMC11746146 (Nature Structural & Molecular Biology, 2024).

Data set [1] has as its target human guanylate-binding protein 1 (GBP1), non-farnesylated (human) (UniProt P32455). Description: SEC-MALS; protein at 15 µM with the GTP transition-state mimic GDP·AlF3, incubated 5–10 min at room temperature; Superdex200 Increase 10/300 GL; 50 mM HEPES pH 7.4, 150 mM NaCl, 0.5 mM TCEP or DTT.
Data set [2] addresses T1, human guanylate-binding protein 1 (GBP1), non-farnesylated (human, UniProt P32455).
T1 construct: human GBP1, UniProt P32455, codon-optimized synthetic DNA in pETM14; called full-length in the results; Dimer studied with GDP·AlF3 (200 µM GDP, 10 mM NaF, 300 µM AlCl3, 5 mM MgCl2); also called hGBP1; WT GBP1; source: E. coli BL21(DE3), purified (TALON, 3C cleavage, SEC); not shown: His6, N-terminal, cleaved
Description: SEC-MALS; nanobody mixed with GBP1 or GBP1F, in the presence and absence of GDP·AlF3; SDS–PAGE (and western blot for GFP–Nb74) of peak fractions. The note with it: both partners purified.

The target of data set [3] is T2, farnesylated human GBP1 (GBP1F) (human, UniProt P32455, C-terminal C15-farnesyl moiety (CaaX isoprenylation motif)).
T2 construct: human GBP1, UniProt P32455, from pETM14-GBP1, co-translationally farnesylated; also called GBP1F–GDP·AlF3; WT GBP1F; source: E. coli BL21(DE3), co-expressed with FNTA-FNTB, purified (TALON, 3C cleavage, HIC, SEC); not shown: His6, N-terminal, cleaved
The description is as above. The note with it: both partners purified.

Data set [4] concerns the molecule itself. The experiment in a line: mass photometry; Refeyn OneMP; samples with GDP·AlF3 diluted to 15 nM in 50 mM HEPES pH 7.5, 150 mM NaCl.
Data set [5] concerns the molecule itself. Description: SEC-MALS; protein at 15 µM with the GTP transition-state mimic GDP·AlF3, incubated 5–10 min at room temperature; Superdex200 Increase 10/300 GL; 50 mM HEPES pH 7.4, 150 mM NaCl, 0.5 mM TCEP or DTT.

In data set [1], “human guanylate-binding protein 1 (GBP1), non-farnesylated (from UniProt P32455 1-592) (natural protein)” returned a stoichiometry N of 2.

B1: nanobody 74 (Nb74) (VHH)
VHH: QVQLVESGGGLVQAGDSLRLSCAASGRALGNYYVGWFSQAPGKEREFVAAISWSGSSTFYADSVKGRFTISRDNAKNTVDLQMNSLKPEDTAVYYCAANPTAKLGSSWYQTPREFGYWGQGTQVTVSS
notes: llama nanobody selected by phage display; the entry PDB 8CQB / EMD-16794 is headed GBP1–GDP·AlF3–Nb74, but the deposited model is called the GBP1 dimer (956 protein residues), so Nb74 may not be in it; Raised in llamas immunized with monomeric GBP1, GBP1F or GDP·AlF3-stabilized dimeric GBP1; source: E. coli WK6 (su−), periplasmic extract, purified (Ni-NTA)
As to B1, the “stoichiometry N” value stood at 1 molar ratio in data set [2] and 1 in data set [3].

B2: GBP1 D308S, non-farnesylated (natural protein, human, UniProt P32455 1-592, looked up)
chain: MASEIHMTGPMCLIENTNGRLMANPEALKILSAITQPMVVVAIVGLYRTGKSYLMNKLAGKKKGFSLGSTVQSHTKGIWMWCVPHPKKPGHILVLLDTEGLGDVEKGDNQNDSWIFALAVLLSSTFVYNSIGTINQQAMDQLYYVTELTHRIRSKSSPDENENEVEDSADFVSFFPDFVWTLRDFSLDLEADGQPLTPDEYLTYSLKLKKGTSQKDETFNLPRLCIRKFFPKKKCFVFDRPVHRRKLAQLEKLQDEELDPEFVQQVADFCSYIFSNSKTKTLSGGIQVNGPRLESLVLTYVNAISSGSLPCMENAVLALAQIENSAAVQKAIAHYEQQMGQKVQLPTETLQELLDLHRDSEREAIEVFIRSSFKDVDHLFQKELAAQLEKKRDDFCKQNQEASSDRCSALLQVIFSPLEEEVKAGIYSKPGGYRLFVQKLQDLKKKYYEEPRKGIQAEEILQTYLKSKESMTDAILQTDQTLTEKEKEIEVERVKAESAQASAKMLQEMQRKNEQMMEQKERSYQEHLKQLTEKMENDRVQLLKEQERTLALKLQEQEQLLKEGFQKESRIMKNEIQDLQTKMRRRKACTIS
notes: human GBP1, UniProt P32455, variant made from pETM14-GBP1 by QuikChange mutagenesis; source: E. coli BL21(DE3), purified (TALON, 3C cleavage, SEC); not shown: His6, N-terminal, cleaved
As for B2, the binding result in data set [4] was “binds”.

B3: GBP1F R584–586A (natural protein, human, UniProt P32455 1-592, looked up)
chain: MASEIHMTGPMCLIENTNGRLMANPEALKILSAITQPMVVVAIVGLYRTGKSYLMNKLAGKKKGFSLGSTVQSHTKGIWMWCVPHPKKPGHILVLLDTEGLGDVEKGDNQNDSWIFALAVLLSSTFVYNSIGTINQQAMDQLYYVTELTHRIRSKSSPDENENEVEDSADFVSFFPDFVWTLRDFSLDLEADGQPLTPDEYLTYSLKLKKGTSQKDETFNLPRLCIRKFFPKKKCFVFDRPVHRRKLAQLEKLQDEELDPEFVQQVADFCSYIFSNSKTKTLSGGIQVNGPRLESLVLTYVNAISSGDLPCMENAVLALAQIENSAAVQKAIAHYEQQMGQKVQLPTETLQELLDLHRDSEREAIEVFIRSSFKDVDHLFQKELAAQLEKKRDDFCKQNQEASSDRCSALLQVIFSPLEEEVKAGIYSKPGGYRLFVQKLQDLKKKYYEEPRKGIQAEEILQTYLKSKESMTDAILQTDQTLTEKEKEIEVERVKAESAQASAKMLQEMQRKNEQMMEQKERSYQEHLKQLTEKMENDRVQLLKEQERTLALKLQEQEQLLKEGFQKESRIMKNEIQDLQTKMAAAKACTIS
modifications: C-terminal C15-farnesyl moiety (CaaX isoprenylation motif)
notes: human GBP1, UniProt P32455, polybasic motif R584–R586 changed to alanines, farnesylated; also called GBP1F R584-R586; source: E. coli BL21(DE3), purified; not shown: His6, N-terminal, cleaved
B3: the binding result in data set [5] is listed as “binds”.

B4: GBP1 K466D, non-farnesylated (natural protein, human, UniProt P32455 1-592, looked up)
chain: MASEIHMTGPMCLIENTNGRLMANPEALKILSAITQPMVVVAIVGLYRTGKSYLMNKLAGKKKGFSLGSTVQSHTKGIWMWCVPHPKKPGHILVLLDTEGLGDVEKGDNQNDSWIFALAVLLSSTFVYNSIGTINQQAMDQLYYVTELTHRIRSKSSPDENENEVEDSADFVSFFPDFVWTLRDFSLDLEADGQPLTPDEYLTYSLKLKKGTSQKDETFNLPRLCIRKFFPKKKCFVFDRPVHRRKLAQLEKLQDEELDPEFVQQVADFCSYIFSNSKTKTLSGGIQVNGPRLESLVLTYVNAISSGDLPCMENAVLALAQIENSAAVQKAIAHYEQQMGQKVQLPTETLQELLDLHRDSEREAIEVFIRSSFKDVDHLFQKELAAQLEKKRDDFCKQNQEASSDRCSALLQVIFSPLEEEVKAGIYSKPGGYRLFVQKLQDLKKKYYEEPRKGIQAEEILQTYLDSKESMTDAILQTDQTLTEKEKEIEVERVKAESAQASAKMLQEMQRKNEQMMEQKERSYQEHLKQLTEKMENDRVQLLKEQERTLALKLQEQEQLLKEGFQKESRIMKNEIQDLQTKMRRRKACTIS
notes: as for B2
For the molecule B4, in data set [4], the binding result is “binds”.

B5: GBP1 Y143A, non-farnesylated (natural protein, human, UniProt P32455 1-592, looked up)
chain: MASEIHMTGPMCLIENTNGRLMANPEALKILSAITQPMVVVAIVGLYRTGKSYLMNKLAGKKKGFSLGSTVQSHTKGIWMWCVPHPKKPGHILVLLDTEGLGDVEKGDNQNDSWIFALAVLLSSTFVYNSIGTINQQAMDQLAYVTELTHRIRSKSSPDENENEVEDSADFVSFFPDFVWTLRDFSLDLEADGQPLTPDEYLTYSLKLKKGTSQKDETFNLPRLCIRKFFPKKKCFVFDRPVHRRKLAQLEKLQDEELDPEFVQQVADFCSYIFSNSKTKTLSGGIQVNGPRLESLVLTYVNAISSGDLPCMENAVLALAQIENSAAVQKAIAHYEQQMGQKVQLPTETLQELLDLHRDSEREAIEVFIRSSFKDVDHLFQKELAAQLEKKRDDFCKQNQEASSDRCSALLQVIFSPLEEEVKAGIYSKPGGYRLFVQKLQDLKKKYYEEPRKGIQAEEILQTYLKSKESMTDAILQTDQTLTEKEKEIEVERVKAESAQASAKMLQEMQRKNEQMMEQKERSYQEHLKQLTEKMENDRVQLLKEQERTLALKLQEQEQLLKEGFQKESRIMKNEIQDLQTKMRRRKACTIS
notes: as for B2
Take B5: in data set [4], the binding result is reported as “binds”.
